Data taken from the supplement of paper PMC7877785.
± gives the uncertainty stated by the source.

Experiment: self-splicing fitness, log relative to wild type (ln ratio); higher = more splicing; Tetrahymena group I intron in knt gene, E. coli kanamycin selection, DiMSum; sequences stand for … in CUCUCU…GGAGGGAAAAGUUAUCAGGCAUGCACCUGGUAGCUAGUCUUUAAACCAAUAGAUUGCAUCGGUUUAAAAGGCAAGACCGUCAAAUUGCGGGAAAGGGGUCAACAGCCGUUCAGUACCAAGUCUCAGGGGAAACUUUGAGAUGGCCUUGCAAAGGGUAUGGUAAUAAGCUGACGGACAUGGUCCUAACCACGCAGCCAAGUCCUAAGUCAACAGAUCUUCUGUUGAUAUGGAUGCAGUUCACAGACUAAAUGUCGGUCGGGGAAGAUGUAUUCUUCUCAUAAGAUAUAGUCGGACCUCUCCUUAAUGGGAGCUAGCGGAUGAAGUGAUGCAACACUGGAGCCGCUGGGAACUAAUUUGUAUGCGAAAGUAUAUUGAUUAGUUUUGGAGUACUCGUGGUCG
Method in brief: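 Pooled colonies went to amplicon sequencing on an Illumina HiSeq 2500 after six replicate transformations. The plates were LB agar with 100 μg/mL carbenicillin, 50 μM IPTG and 0.2% rhamnose, with or without 25 μg/mL kanamycin, incubated overnight at 37°C or 30°C. The E. coli BL21(DE3) library had all eight P1ex-region intron nucleotides randomised, the intron placed in the knt kanamycin-resistance gene on pET-22b(+). DiMSum fitness is the error-weighted combination of replicate fold changes, kanamycin against none, normalised to wild type.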

Sequence | self-splicing fitness (ln) (30 °C) | self-splicing fitness (ln) (37 °C)
GUACAGCAAUAUUACGGGAC | -1.7 ± 0.12 | -1.22 ± 0.14
GUACAGCAAUAUUACGGGGG | -3.36 ± 0.12 | -3.03 ± 0.15
GUACAGCAAUAUUACGGUCA | -0.796 ± 0.068 | -0.618 ± 0.082
GUACAGCAAUAUUACGGUCG | -1.36 ± 0.058 | -0.547 ± 0.084
GUACAGCAAUAUUACGUCAC | – | -2.14 ± 0.31
GUACAGCAAUAUUACGUCAG | -4.26 ± 0.29 | -2.99 ± 0.26
GUACAGCAAUAUUACGUCGG | -3.45 ± 0.27 | -2.4 ± 0.25
GUACAGCAAUAUUACGUCUA | -1.11 ± 0.091 | -0.268 ± 0.081
GUACAGCAAUAUUACGUGAG | -1.42 ± 0.074 | -0.954 ± 0.093
GUACAGCAAUAUUACGUGGA | -4.34 ± 0.29 | -2.52 ± 0.14
GUACAGCAAUAUUACGUGUG | -2.12 ± 0.087 | -1.45 ± 0.1
GUACAGCAAUAUUACGUUGA | -2.77 ± 0.12 | -1.59 ± 0.095
GUAGAGCAAUAUUACGAAAA | – | -0.266 ± 0.44
GUAGAGCAAUAUUACGAAUU | -2.35 ± 0.21 | -2.01 ± 0.35
GUAGAGCAAUAUUACGACAG | -3.49 ± 0.33 | -1.86 ± 0.3
GUAGAGCAAUAUUACGACUC | 0.512 ± 0.23 | 0.484 ± 0.38
GUAGAGCAAUAUUACGAGCU | -2.67 ± 0.22 | -1.66 ± 0.23
GUAGAGCAAUAUUACGCCAU | -1.22 ± 0.39 | –
GUAGAGCAAUAUUACGCGCU | -2.69 ± 0.32 | -2.85 ± 0.32
GUAGAGCAAUAUUACGCUAG | -0.754 ± 0.13 | 0.329 ± 0.21
GUAGAGCAAUAUUACGCUCU | -3.31 ± 0.43 | –
GUAGAGCAAUAUUACGGACG | -2.8 ± 0.36 | -1 ± 0.3
GUAGAGCAAUAUUACGGAGG | – | -1.69 ± 0.43
GUAGAGCAAUAUUACGGGGG | -2.82 ± 0.26 | -2.22 ± 0.3
GUAGAGCAAUAUUACGGUAG | -2.36 ± 0.12 | -1.24 ± 0.13

Sequence | self-splicing fitness (ln) (30 °C) | self-splicing fitness (ln) (37 °C)
GUAGAGCAAUAUUACGUAGA | -4.79 ± 0.41 | -1.55 ± 0.25
GUAGAGCAAUAUUACGUGAA | -1.86 ± 0.17 | -1.87 ± 0.2
GUAUAGCAAUAUUACGAAGU | -3.25 ± 0.21 | -1.81 ± 0.18
GUAUAGCAAUAUUACGAAUC | -2.37 ± 0.22 | -0.29 ± 0.17
GUAUAGCAAUAUUACGACUU | -0.268 ± 0.072 | -0.0307 ± 0.085
GUAUAGCAAUAUUACGAGUA | -1.18 ± 0.19 | -1.77 ± 0.22
GUAUAGCAAUAUUACGAGUG | -2.23 ± 0.15 | -2.47 ± 0.22
GUAUAGCAAUAUUACGAUCG | -1.69 ± 0.33 | -0.878 ± 0.31
GUAUAGCAAUAUUACGCAUU | -2 ± 0.17 | -2.28 ± 0.29
GUAUAGCAAUAUUACGCUGG | -2.35 ± 0.17 | -1.01 ± 0.18
GUAUAGCAAUAUUACGGGCG | -2.27 ± 0.17 | -0.207 ± 0.18
GUAUAGCAAUAUUACGGGCU | -2.86 ± 0.17 | -1.38 ± 0.19
GUAUAGCAAUAUUACGGGUU | -3.05 ± 0.29 | -2.07 ± 0.27
GUAUAGCAAUAUUACGGUGA | -2.53 ± 0.25 | -0.645 ± 0.18
GUAUAGCAAUAUUACGUAGG | -3.15 ± 0.16 | -1.47 ± 0.14
GUAUAGCAAUAUUACGUAGU | -2.17 ± 0.096 | -1.26 ± 0.095
GUAUAGCAAUAUUACGUCAG | -3.96 ± 0.35 | -1.08 ± 0.18
GUAUAGCAAUAUUACGUGGC | -3.62 ± 0.33 | -2.09 ± 0.28
GUAUAGCAAUAUUACGUGUA | -1.79 ± 0.2 | -1.92 ± 0.18
GUAUAGCAAUAUUACGUUGA | -2.87 ± 0.21 | -1.41 ± 0.18
GUCAAGCAAUAUUACGAAAA | -1.95 ± 0.41 | -2.53 ± 0.31
GUCAAGCAAUAUUACGAACC | -3.76 ± 0.42 | –
GUCAAGCAAUAUUACGAAUU | -3.06 ± 0.18 | -1.82 ± 0.17
GUCAAGCAAUAUUACGACGG | -4.06 ± 0.37 | -1.71 ± 0.34
GUCAAGCAAUAUUACGAGCG | -2.72 ± 0.16 | -1.2 ± 0.18

Sequence | self-splicing fitness (ln) (30 °C) | self-splicing fitness (ln) (37 °C)
GUCAAGCAAUAUUACGAGUA | -3.43 ± 0.19 | -1.98 ± 0.15
GUCAAGCAAUAUUACGAUCG | -3.39 ± 0.19 | -2.88 ± 0.23
GUCAAGCAAUAUUACGAUGU | -1.75 ± 0.042 | -0.404 ± 0.055
GUCAAGCAAUAUUACGCAGG | -4.19 ± 0.36 | -2.3 ± 0.3
GUCAAGCAAUAUUACGCCCA | -1.4 ± 0.15 | -1.11 ± 0.14
GUCAAGCAAUAUUACGCCGG | – | -0.94 ± 0.36
GUCAAGCAAUAUUACGCUAU | -4.05 ± 0.17 | -3.81 ± 0.15
GUCAAGCAAUAUUACGCUGC | – | -3.33 ± 0.27
GUCAAGCAAUAUUACGGAAG | -3.05 ± 0.15 | -1.68 ± 0.17
GUCAAGCAAUAUUACGGCGC | -0.751 ± 0.11 | -0.437 ± 0.14
GUCAAGCAAUAUUACGGCUA | -1.28 ± 0.073 | -0.658 ± 0.066
GUCAAGCAAUAUUACGGGGG | -4.02 ± 0.46 | -2.86 ± 0.34
GUCAAGCAAUAUUACGGGUA | -2.91 ± 0.12 | -1.45 ± 0.076
GUCAAGCAAUAUUACGGGUU | -3.26 ± 0.11 | -2.31 ± 0.12
GUCAAGCAAUAUUACGGUCA | -1.24 ± 0.12 | -0.86 ± 0.12
GUCAAGCAAUAUUACGGUGG | -4.45 ± 0.15 | -3.19 ± 0.17
GUCAAGCAAUAUUACGUAAU | -0.836 ± 0.044 | -0.385 ± 0.061
GUCAAGCAAUAUUACGUACC | -0.597 ± 0.3 | -1.73 ± 0.43
GUCAAGCAAUAUUACGUCUC | -0.66 ± 0.076 | -0.461 ± 0.097
GUCAAGCAAUAUUACGUGAU | -4.06 ± 0.23 | -3.23 ± 0.27
GUCAAGCAAUAUUACGUUCU | -1.88 ± 0.07 | -1.3 ± 0.087
GUCAAGCAAUAUUACGUUGA | -2.64 ± 0.21 | -3.51 ± 0.4
GUCCAGCAAUAUUACGACCU | -2.17 ± 0.19 | -1.13 ± 0.2
GUCCAGCAAUAUUACGAGAC | -3.46 ± 0.23 | -1.82 ± 0.23
GUCCAGCAAUAUUACGAGCC | -1.18 ± 0.15 | -0.519 ± 0.16

Sequence | self-splicing fitness (ln) (30 °C) | self-splicing fitness (ln) (37 °C)
GUCCAGCAAUAUUACGAUUC | -0.315 ± 0.055 | 0.0606 ± 0.075
GUCCAGCAAUAUUACGCGAC | -3.04 ± 0.19 | -2.86 ± 0.21
GUCCAGCAAUAUUACGCGAG | -0.816 ± 0.088 | -0.322 ± 0.1
GUCCAGCAAUAUUACGCGUU | -0.325 ± 0.078 | 0.304 ± 0.1
GUCCAGCAAUAUUACGCUAC | -4.03 ± 0.16 | -2.96 ± 0.14
GUCCAGCAAUAUUACGGAAU | -0.712 ± 0.079 | 0.0755 ± 0.094
GUCCAGCAAUAUUACGGAGA | -0.714 ± 0.096 | 0.585 ± 0.11
GUCCAGCAAUAUUACGGCCU | -3.36 ± 0.2 | -1.14 ± 0.13
GUCCAGCAAUAUUACGGGUU | -1.58 ± 0.07 | -1.03 ± 0.073
GUCCAGCAAUAUUACGGUAG | -2.08 ± 0.083 | -1.61 ± 0.096
GUCCAGCAAUAUUACGGUAU | -0.797 ± 0.052 | 0.0993 ± 0.064
GUCCAGCAAUAUUACGGUCA | -0.244 ± 0.07 | -0.0837 ± 0.072
GUCCAGCAAUAUUACGUCAC | -2.41 ± 0.14 | -0.6 ± 0.13
GUCCAGCAAUAUUACGUCGU | -0.0754 ± 0.066 | -0.486 ± 0.088
GUCCAGCAAUAUUACGUCUC | 0.725 ± 0.087 | -0.134 ± 0.087
GUCCAGCAAUAUUACGUGGA | -3.34 ± 0.21 | -1.91 ± 0.19
GUCCAGCAAUAUUACGUGGC | -3.97 ± 0.24 | -3.46 ± 0.39
GUCGAGCAAUAUUACGAAUA | -2.42 ± 0.36 | -2.1 ± 0.34
GUCGAGCAAUAUUACGACAG | -2.66 ± 0.23 | -1.75 ± 0.28
GUCGAGCAAUAUUACGACAU | -0.997 ± 0.015 | -0.465 ± 0.033
GUCGAGCAAUAUUACGACUG | -3.17 ± 0.45 | -0.232 ± 0.18
GUCGAGCAAUAUUACGAUCU | -2.87 ± 0.18 | -0.451 ± 0.12
